Data on one molecule can be found in US20250249076A1, “Composition Comprising a Combination of Lactoferrin and a Sulphated Polysaccharide” (Reckitt Benckiser Health Limited, priority 2022, published 2025).

Assay [1] relates to Lactobacillus jensenii 25258. The experiment in a line: 96-well chequerboard growth assay (optical density over 48 hours), prebiotic effect. The assay is classed as cell-based. To be noted: bacteria exposed to the ingredient alone; FIG. 5. As for the experimental part:
A stock solution of 8 mg/mL bovine lactoferrin, was prepared by adding the appropriate amount of sterile MilliQ water to the weighted compound, followed by vortexing and filter-sterilizing. A stock solution of 2 mg/ml of each of the carrageenans (κ-, I-, λ-) was prepared by adding the appropriate amount of sterile MilliQ water to the weighted compound, incubated at 37° C. for 30 minutes, followed by vortexing until clear, and filter-sterilizing. […] The stock solution of lactoferrin was serially diluted in a broth-based media (appropriate for growth of the particular microorganism to be assayed) along the rows of the microtiter plate. The stock solution of carrageenan (κ-, I-, or λ-) was serially diluted in a broth-based media (appropriate for growth of the particular microorganism) along the columns of the microtiter plate. The final volume of media in each well was 0.1 mL. Each well containing lactoferrin and/or carrageenan (κ-, I-, or λ-) was inoculated with log-phase bacteria/yeast at a concentration of 5×10^5 colony forming units (CFU)/well. […] After addition of the relevant microorganism, plates were sealed with optical quality film, and incubated within the plate reader at the appropriate growth temperature for the microorganism being assayed. The optical density (OD) was recorded every 15 minutes for a period of 48 hours to evaluate the microorganism growth and biomass formation.

Assay [2] relates to Lactobacilli at the level of the vaginal flora. To be noted: vaginal use; cited from earlier work.

B1: lactoferrin: iron-binding cationic glycoprotein belonging to the family of transferrins; bovine lactoferrin used in the Examples (protein, UniProt P24627 20-708, looked up)
Lactotransferrin: APRKNVRWCTISQPEWFKCRRWQWRMKKLGAPSITCVRRAFALECIRAIAEKKADAVTLDGGMVFEAGRDPYKLRPVAAEIYGTKESPQTHYYAVAVVKKGSNFQLDQLQGRKSCHTGLGRSAGWIIPMGILRPYLSWTESLEPLQGAVAKFFSASCVPCIDRQAYPNLCQLCKGEGENQCACSSREPYFGYSGAFKCLQDGAGDVAFVKETTVFENLPEKADRDQYELLCLNNSRAPVDAFKECHLAQVPSHAVVARSVDGKEDLIWKLLSKAQEKFGKNKSRSFQLFGSPPGQRDLLFKDSALGFLRIPSKVDSALYLGSRYLTTLKNLRETAEEVKARYTRVVWCAVGPEEQKKCQQWSQQSGQNVTCATASTTDDCIVLVLKGEADALNLDGGYIYTAGKCGLVPVLAENRKSSKHSSLDCVLRPTEGYLAVAVVKKANEGLTWNSLKDKKSCHTAVDRTAGWNIPMGLIVNQTGSCAFDEFFSQSCAPGADPKSRLCALCAGDDQGLDKCVPNSKEKYYGYTGAFRCLAEDVGDVAFVKNDTVWENTNGESTADWAKNLNREDFRLLCLDGTRKPVTEAQSCHLAVAPNHAVVSRSDRAAHVKQVLLHQQALFGKNGKNCPDKFCLFKSETKNLLFNDNTECLAKLGGRPTYEEYLGTEYVTAIANLKKCSTSPLLEACAFLTR
Turning to B1, the “viability / phase of the bacterial growth cycle of L. jensenii 25258” value in assay [1] is listed as “enters the death phase”. The “presence of Lactobacilli at the level of the vaginal flora” value in assay [2] is “able to increase the presence of Lactobacilli”.
